PMC3030368

T1: Nab3 RRM (Saccharomyces cerevisiae, UniProt P38996 321-415)
T1 sequence: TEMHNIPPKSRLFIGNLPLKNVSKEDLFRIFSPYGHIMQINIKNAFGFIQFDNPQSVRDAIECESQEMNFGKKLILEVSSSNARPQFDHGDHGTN

T2: Nrd1 RRM (UniProt P53617 340-410)
T2 sequence: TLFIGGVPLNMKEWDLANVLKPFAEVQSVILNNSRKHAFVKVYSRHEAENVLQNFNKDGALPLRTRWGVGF


Tests used:
Nab3 RRM = target: T1, Nab3 RRM; assay: fluorescence anisotropy
Nrd1 RRM = target: T2, Nrd1 RRM; assay: fluorescence anisotropy

| Binder | binding signal (Nab3 RRM) | Kd (Nrd1 RRM) [µM] |
| --- | --- | --- |
| UCUU (ssRNA) [UCUU (FA)] | ~10 fold weaker than snR47 (1 order of magnitude; Kd only in figure) | – |
| GUAA (ssRNA) | > 6 fold lower affinity than UCUU | 66 ± 1 |
